Laboratory results: US20230310601A1 (UNIVERSITY OF SOUTHERN CALIFORNIA, published 2023)

Target: T1, recombinant human PD-1-Fc (GenScript) (human, UniProt Q15116 25-167, limits assumed)
T1 construct: Bought reagent (GenScript); not shown: Fc part of the bought fusion
Assay: sandwich ELISA; PD-1-Fc coated (200 ng/mL), purified trap protein 0-40 µg/mL, anti-His-tag-HRP detection
Description: FIG. 2A-2E depict characterization of trap protein. […] (2D and 2E) Binding ability of trap to PD-1 and TGF-β using sandwich ELISA, wherein purified trap protein was added to PD-1-Fc-coated or TGF-β-coated plates, followed by detection by anti-His-tag antibody conjugated with HRP.
The binding ability of trap protein to PD-1 and TGFβ protein was evaluated by sandwich ELISA, wherein recombinant human PD-1-Fc (GenScript) or […] protein (R&D Systems) (200 ng/mL) was coated on the plates, followed by purified trap protein (0-40 μg/mL) detected by anti-6×HIS TAG® antibody-HRP (1:500 diluted, Abcam).

T1 sequence (Q15116 25-167 limits assumed): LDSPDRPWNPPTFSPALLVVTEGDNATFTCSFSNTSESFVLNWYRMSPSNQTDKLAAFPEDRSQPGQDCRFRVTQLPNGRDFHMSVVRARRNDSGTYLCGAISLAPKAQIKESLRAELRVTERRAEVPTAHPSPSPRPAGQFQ

B1: trap protein labeled with a His-tag (anti-PD-1 scFv fused to a TGF-β-binding sequence of TGF-βRII, produced in transfected 293T cells) (other, not shown: small tags and cut ends)
chain: DIVLTQSPATLSLSPGERATLSCRASKSVSTSGFNYMHWYQQKPGQAPRLLIFLASNLASGVPARFSGSGSGTDFTLTISSLEPEDFAVYYCQHGRELPLTFGQGTKLEIGGGGSGGGGSGGGGSQVQLVQSGAEVKKPGASVKVSCKASGYTFTNYYMYWVRQAPGQGLEWIGGINPSNGGTNFNEKFKNKATMTVDKSTSTAYMELSSLRSEDTAVYYCTRRDYNYDGGFDYWGQGTLVTVSSGGGGSGGGGSTIPPHVQKSVNNDMIVTDNNGAVKFPQLCKFCDVRFSTCDNQKSCMSNCSITSICEKPQEVCVAVWRKNDENITLETVCHDPKLPYHDFILEDAASPKCIMKEKKKPGETFFMCSCSSDECNDNIIFSEEYNTSNPD
notes: Western blot gives 56 kDa; The text says the scFv derives from antibody 5C4; also called bifunctional trap protein; purified trap protein
B1: binds.
